According to patent US20190367631A1 (Regeneron, published 2019):
Changes are numbered by the printed parent chain. In names and notes the source's numbering stands.

B1: H1H27729P-N297Q (antibody, human IgG1, V domains shown)
VH: QVQLVESGGGLVKPGGSLRLSCAASGFIFSDYYMSWIRQAPGKGLEWVSYISSSGTTIYGDSVKGRFTMSRDNAKNSLYLQMNSLRAEDTAVYYCARNYALFDYWGQGTLVTVSS
VL: DIQMTQSPSSLSASVGDRVTITCQASQDISKYLNWYQQKPGKAPKLLIYYTSNLETGVPSRFSGSGSGTDFTFTISSLQPEDIATYYCHQSDYLPFTFGPGTKVDIKR
notes: human IgG1 Fc with N297Q (EU)
B2: H1H27729P-N297Q-LP1 (antibody, human IgG1, V domains shown)
VH: B1 VH
VL: B1 VL
modifications: LXR agonist linker-payload LP1 clicked to azido-PEG3-amine on Q295 and Q297 (EU) of the heavy chain constant region
notes: antibody-drug conjugate; human IgG1 Fc with N297Q (EU); also called H1H27729P-LP1
B3: H1H27756P-N297Q (antibody, human IgG1, V domains shown)
VH: QVQLVESGGGVVQPGRSLRLSCAASGFTFSNYDMHWVRQAPGKGLEWMAVISYDGINKYYADSVKGRFTISRDNSKNTLYLQMNSLRAEDTAVYYCAKGTYSWYFDLWGRGTLVTVSS
VL: not shown
notes: human IgG1 Fc with N297Q (EU)
B4: H1H27756P-N297Q-LP1 (antibody, human IgG1, V domains shown)
VH: B3 VH
VL: not shown
modifications: LXR agonist linker-payload LP1 clicked to azido-PEG3-amine on Q295 and Q297 (EU) of the heavy chain constant region
notes: antibody-drug conjugate; human IgG1 Fc with N297Q (EU); also called H1H27756P-LP1
B5: H1H27749P-N297Q-LP1 (antibody, human IgG1, V domains shown)
VH: QVQLQESGPGLVKPSETLSLTCTVSDGSISSYYWSWIRQPPGRGLEWIGFIYYSGSTSYNPSLKSRVTISVDTSMSQFSLKLRSVTAADTAVYYCARGSPFDYWGPGTLVTVSS
VL: EIVLTQSPGTLSLSPGERATLSCRASQSVSSSYLAWYQQRPGQAPSLLISGASRRATGIPDRFSGSGSGTDFTLTIRRLEPEDFAMYYCQQYGSSPPTFGGGTKVEIKR
modifications: LXR agonist linker-payload LP1 clicked to azido-PEG3-amine on Q295 and Q297 (EU) of the heavy chain constant region
notes: antibody-drug conjugate; human IgG1 Fc with N297Q (EU); also called H1H27749P-LP1
B6: H1H27731P-N297Q (antibody, V domains shown)
VH: QLQLQESGPGLVKPSETLSLTCTVSGGSISRISYYWGWIRQPPGKGLEWIGSIYDSGSTYYNPSLKSRVTISIDTSKNQFSLKLSSVTAADTAVYYCVRYSSSSAFAFDYWGQGTLVTVSS
VL: DIQMTQSPSSVSASVGDRVTITCRASQGISSWLAWYQQKPGKAPKLLIYAASSLQSGVPSRFSGSGSGTDFTLTISSLQPEDFATYYCQQANSFPFTFGPGTKVDIKR
notes: human IgG1 Fc with N297Q (EU)
B7: H1H27747P-N297Q-LP1 (antibody, human IgG1, V domains shown)
VH: QVQLVESGGAVVQPGRSLRLSCAASGFTFSYYGMHWVRQAPGKGLEWVAVISYDGSKKYYADSVKGRFTISRDNSKNTLYLQMNSLRAEDTAVYYCAKDLTVDFYYGMDVWGQGTTVTVSS
VL: B6 VL with A51T, V58A, Y87F, F96Y, P100Q, V104L, D105E
modifications: LXR agonist linker-payload LP1 clicked to azido-PEG3-amine on Q295 and Q297 (EU) of the heavy chain constant region
notes: antibody-drug conjugate; human IgG1 Fc with N297Q (EU); also called H1H27747P-LP1
B8: H1H27751P-N297Q (antibody, human IgG1, V domains shown)
VH: EVQLVESGGGLVQPGGSLRLSCAASGFTFSNYAMHWVRQAPGKGLEYVSAISSNGGSTYYADSVKGRITISRDNSKNTLYLQMGSLRAEDMAVYYCARGRPYYYYFGMDVWGQGTTVTVSS
VL: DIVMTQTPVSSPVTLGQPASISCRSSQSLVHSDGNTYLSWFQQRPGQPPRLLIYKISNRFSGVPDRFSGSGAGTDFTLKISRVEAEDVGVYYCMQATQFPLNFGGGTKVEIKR
notes: human IgG1 Fc with N297Q (EU)
B9: H1H27751P-N297Q-LP1 (antibody, human IgG1, V domains shown)
VH: B8 VH
VL: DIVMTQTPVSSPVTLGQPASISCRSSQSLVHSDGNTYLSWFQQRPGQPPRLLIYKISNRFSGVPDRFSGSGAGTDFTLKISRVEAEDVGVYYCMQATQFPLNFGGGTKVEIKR
modifications: LXR agonist linker-payload LP1 clicked to azido-PEG3-amine on Q295 and Q297 (EU) of the heavy chain constant region
notes: antibody-drug conjugate; human IgG1 Fc with N297Q (EU)
B10: H1H27759P-N297Q (antibody, human IgG1, V domains shown)
VH: EVQLVESGGGFVQPGGSLRLSCAASGFTFSSYAMSWVRQAPGKGLEWVSAISGTGSNTYYADSVKGRFTISRDNSKNTLYLQMNSLRAEDTAVYYCAKDRVTTVTYYFDYWGQGTLVTVSS
VL: not shown
notes: human IgG1 Fc with N297Q (EU); also called H1H27759P2-N297Q
B11: H1H27759P-N297Q-LP1 (antibody, human IgG1, V domains shown)
VH: B10 VH
VL: not shown
modifications: LXR agonist linker-payload LP1 clicked to azido-PEG3-amine on Q295 and Q297 (EU) of the heavy chain constant region
notes: as for B9
B12: H1H27762P-N297Q (antibody, human IgG1, V domains shown)
VH: QVQLVQSGAEVKKPGSSVKVSCKASGGTFSRYDISWVRQAPGQGLEWMGGIIPIFGTSNYAQKFQGRVTITTDESTSTVYMELSSLRSEDTAVYYCARGGRYGWFDPWGQGTLVTVSS
VL: not shown
notes: human IgG1 Fc with N297Q (EU); also called H1H27762P2-N297Q
B13: H1H27734P-N297Q (antibody, human IgG1, V domains shown)
VH: EVQLVESRGGLVQPGGSLRLSCAASGFTFSSYAMSWVRQAPGKGLEWVSAISGSGGSTFYADSVKGRFTISRDNSKNTVYLQMNSLRAEDTAVYYCAKALVLRFLEWLGDYWGQGTLVTVSS
VL: DIQMTQSPSTLSASVGDRVTITCRASQSISSWLAWFQQKPGKAPKLLIYKASSLESGVPSRFSGSGSGTEFTLTISSLQPDDFATYYCQQYKSYWTFGQGTKVEIKR
notes: human IgG1 Fc with N297Q (EU)
B14: H1H27734P-N297Q-LP1 (antibody, human IgG1, V domains shown)
VH: B13 VH
VL: B13 VL
modifications: LXR agonist linker-payload LP1 clicked to azido-PEG3-amine on Q295 and Q297 (EU) of the heavy chain constant region
notes: antibody-drug conjugate; human IgG1 Fc with N297Q (EU); also called H1H27734P-LP1
B15: H1H27760P-N297Q (antibody, human IgG1, V domains shown)
VH: EVQLVESGGGLVQPGRSLRLSCAASGFTFDAYAMHWVRQAPGKGLEWVSGISWNSGSIGYADSVKGRFTISRDNAKNSLYLQMNSLREEDTALYYCAKDKILELYYYGMDVWGQGTTVTVSS
VL: not shown
notes: human IgG1 Fc with N297Q (EU); also called H1H27760P2-N297Q
B16: H1H27760P-N297Q-LP1 (antibody, human IgG1, V domains shown)
VH: B15 VH
VL: not shown
modifications: LXR agonist linker-payload LP1 clicked to azido-PEG3-amine on Q295 and Q297 (EU) of the heavy chain constant region
notes: as for B9
B17: H1H27761P-N297Q (antibody, human IgG1, V domains shown)
VH: EVQLVESGGDLVQPGGSLRLSCSASGFTFNIYAMSWVRQAPGKGLEWVSGISGSGGSTYYADSVKGRFTISRDNSKNTLYFQMNSLRVEDTAVYYCAKKISSSSYYYYAMDVWGQGTTVTVSS
VL: not shown
notes: human IgG1 Fc with N297Q (EU); also called H1H27761P2-N297Q
B18: H1H27761P-N297Q-LP1 (antibody, human IgG1, V domains shown)
VH: B17 VH
VL: not shown
modifications: LXR agonist linker-payload LP1 clicked to azido-PEG3-amine on Q295 and Q297 (EU) of the heavy chain constant region
notes: as for B9
B19: H1H27739P-N297Q (antibody, human IgG1, V domains shown)
VH: EVQLVESGGGLVQPGGSLRLSCTASGFTFSSYAMSWVRQAPGKGLEWVSAISGTGSSTYFTDSVKGRFAISRDNSKNTLYLQMNSLRAEDTAVYYCAKDGEWLSTVTLFDYWGQGTLVTVSS
VL: EIVMTQSPATLSVSPGERATLSCRASQSVSSNLAWYQQKPGQAPRLLIYGASTRATGIPARFSGSGSGTDFTLTISSLQSEDFALYYCQQYFIWPPHPTFGPGTKVDIKR
notes: human IgG1 Fc with N297Q (EU)
B20: H1H27739P-N297Q-LP1 (antibody, human IgG1, V domains shown)
VH: B19 VH
VL: B19 VL
modifications: LXR agonist linker-payload LP1 clicked to azido-PEG3-amine on Q295 and Q297 (EU) of the heavy chain constant region
notes: antibody-drug conjugate; human IgG1 Fc with N297Q (EU); also called H1H27739P-LP1

biological target: T1, human MSR1 extracellular domain expressed with a N-terminal nonahistidine tag (His9-hMSR1); R&D Systems, Cat … (human, UniProt P21757 77-451); assay: SPR Biacore T200, 25 C, antibody captured by anti-human Fc, His9-hMSR1 injected;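 note: running buffer HBS-ET pH 7.4, rates from sensorgrams fitted to a 1:1 model including mass transport limitation, KD and half-life derived from the kinetic constants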
T1 construct: extracellular domain; Bought reagent; also called His-hMSR1; 9xHis-hMSR1
T1 sequence: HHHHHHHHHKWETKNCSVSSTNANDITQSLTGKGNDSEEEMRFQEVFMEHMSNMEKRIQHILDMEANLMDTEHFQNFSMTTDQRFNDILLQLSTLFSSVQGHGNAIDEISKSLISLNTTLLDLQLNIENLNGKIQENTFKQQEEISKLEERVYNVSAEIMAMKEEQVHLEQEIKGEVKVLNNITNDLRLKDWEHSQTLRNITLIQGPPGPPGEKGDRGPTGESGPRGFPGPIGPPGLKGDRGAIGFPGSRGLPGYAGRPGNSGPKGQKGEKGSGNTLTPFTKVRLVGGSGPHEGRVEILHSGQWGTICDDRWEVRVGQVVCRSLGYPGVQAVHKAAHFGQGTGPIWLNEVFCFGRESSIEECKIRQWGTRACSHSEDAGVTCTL

Q: Which results are given for B1?
A: Kd: 8.67 nM; koff: 0.000906 s⁻¹; kon: 105000 M⁻¹ s⁻¹; t½: 12.8 min

Q: For B2, which Kd is on record?
A: 13.1 nM

Q: What about the koff of the same binder?
A: 0.000718 s⁻¹

Q: And the kon?
A: 54700 M⁻¹ s⁻¹

Q: And the t½?
A: 16.1 min

Q: Which results are given for B3?
A: Kd: 1.65 nM; t½: 97.4 min

Q: For B4, which Kd is on record?
A: 1.76 nM

Q: What about the koff of the same binder?
A: 0.00011 s⁻¹

Q: And the kon?
A: 62700 M⁻¹ s⁻¹

Q: What about the t½ of the same binder?
A: 105 min

Q: How did the kon turn out when B5 was run?
A: 140000 M⁻¹ s⁻¹

Q: Which Kd does the source give for B6 here?
A: ≤ 0.0855 nM

Q: And the koff?
A: ≤ 1e-05 s⁻¹

Q: What about the kon of the same binder?
A: 117000 M⁻¹ s⁻¹

Q: And the t½?
A: 1160 min

Q: With B7 as the binder, how does the Kd read?
A: 1.49 nM

Q: And the koff?
A: 0.000203 s⁻¹

Q: And the kon?
A: 136000 M⁻¹ s⁻¹

Q: And the t½?
A: 56.9 min

Q: B8 was tested. Which Kd did it give?
A: 0.833 nM

Q: And the koff?
A: 0.000175 s⁻¹

Q: And the kon?
A: 210000 M⁻¹ s⁻¹

Q: What about the t½ of the same binder?
A: 66.1 min

Q: What does the source list for B9?
A: Kd: 0.664 nM; koff: 0.000152 s⁻¹; kon: 229000 M⁻¹ s⁻¹; t½: 76.1 min

Q: Which results are given for B10?
A: Kd: 4.23 nM; koff: 0.000435 s⁻¹; kon: 103000 M⁻¹ s⁻¹; t½: 26.6 min

Q: With B11 as the binder, how does the Kd read?
A: 4.57 nM

Q: What about the koff of the same binder?
A: 0.000595 s⁻¹

Q: And the kon?
A: 130000 M⁻¹ s⁻¹

Q: What about the t½ of the same binder?
A: 19.4 min

Q: B12 was tested. Which Kd did it give?
A: 1.38 nM

Q: What about the koff of the same binder?
A: 0.00056 s⁻¹

Q: What about the kon of the same binder?
A: 405000 M⁻¹ s⁻¹

Q: And the t½?
A: 20.6 min

Q: What does the source list for B13?
A: Kd: 7.72 nM; koff: 0.000596 s⁻¹; kon: 77200 M⁻¹ s⁻¹; t½: 19.4 min

Q: For B14, which Kd is on record?
A: 6.49 nM

Q: And the koff?
A: 0.000449 s⁻¹

Q: What about the kon of the same binder?
A: 69300 M⁻¹ s⁻¹

Q: And the t½?
A: 25.7 min

Q: Which Kd does the source give for B15 here?
A: 1.66 nM

Q: And the t½?
A: 30.2 min

Q: B16 was tested. Which Kd did it give?
A: 1.67 nM

Q: And the koff?
A: 0.000434 s⁻¹

Q: And the kon?
A: 259000 M⁻¹ s⁻¹

Q: And the t½?
A: 26.6 min

Q: With B17 as the binder, how does the Kd read?
A: 0.609 nM

Q: What about the koff of the same binder?
A: 0.000362 s⁻¹

Q: What about the kon of the same binder?
A: 595000 M⁻¹ s⁻¹

Q: And the t½?
A: 31.9 min

Q: What does the source list for B18?
A: Kd: 2.02 nM; koff: 0.000511 s⁻¹; kon: 253000 M⁻¹ s⁻¹; t½: 22.6 min

Q: With B19 as the binder, how does the Kd read?
A: 4.68 nM

Q: And the koff?
A: 0.000555 s⁻¹

Q: And the kon?
A: 119000 M⁻¹ s⁻¹

Q: And the t½?
A: 20.8 min

Q: Which Kd does the source give for B20 here?
A: 8.14 nM

Q: What about the koff of the same binder?
A: 0.000722 s⁻¹

Q: What about the kon of the same binder?
A: 88800 M⁻¹ s⁻¹

Q: What about the t½ of the same binder?
A: 16 min
